Four molecules from patent US20230277625A1 (SIMCHA IL 18, published 2023) can be followed below.

Assay [1] has as its target T1, Mouse IL-18Rα ectodomain (amino acids 19-329), biotinylated (mouse, UniProt Q61098 19-329, biotin on the AviTag (BirA ligase)).
T1 construct: range 19-329; Secreted from Expi293 cells (H7 signal peptide removed); also called mIL-18Rα; mIL18Ra
T1 sequence: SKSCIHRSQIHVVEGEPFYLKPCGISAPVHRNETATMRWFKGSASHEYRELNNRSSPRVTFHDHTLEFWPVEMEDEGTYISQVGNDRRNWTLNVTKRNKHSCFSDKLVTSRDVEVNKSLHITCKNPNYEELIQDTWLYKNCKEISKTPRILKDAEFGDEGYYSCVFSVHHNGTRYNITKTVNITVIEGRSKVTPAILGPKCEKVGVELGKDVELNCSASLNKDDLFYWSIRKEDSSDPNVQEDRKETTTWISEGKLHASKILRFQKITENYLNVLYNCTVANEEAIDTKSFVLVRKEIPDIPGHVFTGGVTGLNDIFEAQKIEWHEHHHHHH
Nature of the assay: SPR.

Assay [2] concerns the target T2, Mouse IL-18BP (amino acids 31-194), biotinylated (mouse, UniProt Q9Z0M9 29-193, biotin on the AviTag (BirA ligase)).
T2 construct: also called mIL-18BP
T2 sequence: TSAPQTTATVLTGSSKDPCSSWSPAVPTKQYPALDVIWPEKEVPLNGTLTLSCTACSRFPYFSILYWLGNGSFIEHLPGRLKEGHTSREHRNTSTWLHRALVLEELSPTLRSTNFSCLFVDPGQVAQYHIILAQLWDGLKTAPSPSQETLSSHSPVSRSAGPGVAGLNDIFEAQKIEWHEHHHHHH
Nature of the assay: SPR. On the technique in general: Surface plasmon resonance follows binding to a sensor surface in real time, without labels.

For assay [3], the target named is T2, Mouse IL-18BP (amino acids 31-194), …. Kind of assay: SPR, immobilized biotinylated mIL-18BP, representative sensorgram FIG. 11B; representative sensorgram, FIG. 11B. The procedure: By contrast, very little binding is observed with the same variants and mIL-18BP (right). FIG. 11B provides measurement of IL-18BP binding using representative surface plasmon resonance sensor grams between immobilized biotinylated mIL-18BP and the murine DR-IL-18 variants.
(§1) Experiments were conducted using a Biacore T100 and carried out at 25° C. Biotinylated IL-18Rα or IL-18BP were immobilized onto a Biacore biotin capture chip (Series S CAP sensor chip, GE Healthcare) to yield an Rmax of ˜50 RU (IL-18Rα) or ˜10 RU (IL-18BP). Measurements were made with serial dilutions of the IL-18 variants in HEPES buffered Saline-P+buffer (10 mM HEPES pH 7.4, 150 mM NaCl, 0.005% surfactant P20). The surface was regenerated by three 60-sec injections of regeneration buffer (3/4 (v/v) 8M guanidine hydrochloride with 1/4 (v/v) 1M sodium hydroxide). Experiments were performed in multiple channels simultaneously for increased observations. All data were analyzed with the Biacore T100 evaluation software version 2.0 with a 1:1 Langmuir binding model.

The target of assay [4] is T1, Mouse IL-18Rα ectodomain (amino acids …). Nature of the assay: SPR (Biacore T100), receptor captured via biotin, IL-18 as analyte. The method in brief: (§2)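 Biotinylated IL-18Rα or IL-18BP captured on a biotin CAP chip (Rmax ~50 RU or ~10 RU respectively), with serial dilutions of IL-18 variants as analyte. Run at 25° C in HBS-P+ (10 mM HEPES pH 7.4, 150 mM NaCl, 0.005% P20); guanidine/NaOH regeneration. KD from 1:1 Langmuir fit.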

The target of assay [5] is T2, Mouse IL-18BP (amino acids 31-194), …. Nature of the assay: SPR (Biacore T100), IL-18BP captured via biotin, IL-18 as analyte. The procedure: as §1
The target is the same in assay [6]. Nature of the assay: on-yeast binding isotherms; KD ratio relative to WT IL-18. The procedure: (§3) Individual colonies of IL-18 yeast were grown overnight at 30° C. in SDCAA liquid media and induced in SGCAA liquid media for 1 day at 20° C. IL-18 display levels on yeast were verified by flow cytometry using an anti-cMyc tag antibody (anti-myc-PE; Cell Signaling Technologies). Receptor staining with biotinylated IL-18Rα (with or without IL-18R β) or biotinylated IL-18BP was performed in PBS supplemented with 0.5% BSA and 2 mM EDTA (PBE) on ice. All analysis was performed on a Sony SA3800 flow cytometer.

Assay [7] shares this target. Nature of the assay: on-yeast binding isotherms; KD for IL-18BP over KD for IL-18Rα. The procedure: as §3
Assay [8] concerns the target T1, Mouse IL-18Rα ectodomain (amino acids …). Kind of assay: on-yeast binding isotherm (flow cytometry). The method in brief:
(§4)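 Yeast displaying IL-18 variants were grown at 30 °C, then induced 1 day at 20 °C, with display checked by anti-myc-PE. Cells were stained on ice with biotinylated IL-18Rα (± IL-18Rβ) or biotinylated IL-18BP in PBS/0.5% BSA/2 mM EDTA. Binding was read by flow cytometry.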

Assay [9] has as its target T2, Mouse IL-18BP (amino acids 31-194), …. Nature of the assay: on-yeast binding isotherm (flow cytometry). The method in brief: as §4
For orientation: In flow cytometry, cells or beads pass a laser one at a time.

The target is the same in assay [10]. Nature of the assay: on-yeast binding isotherm (flow cytometry): yeast-displayed murine IL-18 variant titrated with mIL-18BP, % max. The procedure: as §3
Assay [11] has the same target. Kind of assay: SPR; KD for IL-18BP over KD for IL-18Rα. The protocol: as §1
For assay [12] the target is unchanged. Kind of assay: SPR; KD(IL-18BP)/KD(IL-18Rα) normalized to WT IL-18.
The target is the same in assay [13]. Nature of the assay: SPR; KD ratio relative to WT IL-18. The procedure:
as §1

Assay [14] has the same target. Kind of assay: on-yeast binding isotherms; 10 µM used for NBD; on-yeast isotherm; ratio is a bound reckoned from 10 µM put in for NBD. The procedure:
as §3

Assay [15] shares this target. Nature of the assay: SPR; 30 µM used for NBD; SPR; ratio is a bound reckoned from 30 µM put in for NBD. The protocol: as §1
The target is the same in assay [16]. Nature of the assay: SPR; KD ratio relative to WT IL-18; SPR; normalized ratio from 30 µM put in for NBD. The procedure: as §1
Assay [17] shares this target. Kind of assay: on-yeast binding isotherms; KD ratio relative to WT IL-18; on-yeast isotherm; normalized ratio from 10 µM put in for NBD. The protocol: as §3
Assay [18] shares this target. Kind of assay: SPR (Biacore T100), IL-18BP captured via biotin, IL-18 as analyte; SPR; weak binding, 3.8 µM. The procedure: as §1
For assay [19] the target is unchanged. Nature of the assay: SPR; KD for IL-18BP over KD for IL-18Rα; SPR; ratio of measured KDs. The procedure: as §1
The target is the same in assay [20]. Nature of the assay: SPR; KD ratio relative to WT IL-18; SPR; ratio normalized to WT. The method in brief:
as §2

Assay [21] shares this target. Nature of the assay: yeast binding isotherms and SPR; members per FIG. 11A legend.
For assay [22] the target is unchanged. Kind of assay: SPR (Biacore T100), IL-18BP captured via biotin, IL-18 as analyte; SPR; very weak binding, about 15 µM. The protocol:
as §1

B1: Mouse Interleukin-18 (mature form), wild type (ligand)
chain: NFGRLHCTTAVIRNINDQVLFVDKRQPVFEDMTDIDQSASEPQTRLIIYMYKDSEVRGLAVTLSVKDSKMSTLSCKNKIISFEEMDPPENIDDIQSDLIFFQKRVPGHNKMEFESSLYEGHFLACQKEDDAFKLILKKKDENGDKSVMFTLTNLHQS
notes: also called mIL-18 WT; WT mIL-18
The term Kd denotes the equilibrium constant for the complex coming apart. A high value points to weaker binding. A word on the EC50 (read off the curve): it is the concentration giving half of the maximal effect. Low values mean an effect from little substance, high ones a need for much substance. Regarding B1, the Kd was determined as 0.6 nM in assay [1]; 0.0011 nM in assay [2]; 0.0008 nM in assay [3]; 0.6 nM in assay [4]; 0.0011 nM in assay [5]; 11.3 nM in assay [8]. In assay [9], this molecule gave a Kd of 2.13 nM. Further, the “Dissociation Constant Ratio normalized to WT IL-18” value in assay [6] and in assay [13] was 1 each time. Also, the “KD ratio IL-18BP/IL-18Rα” value was determined as 0.188 in assay [7] and 0.00183 in assay [11]. Moreover, in [10], the “EC50 (read off the curve)” value is about 20 nM. The “IL-18 BP:Rα Dissociation Constant Ratio” value in assay [12] was 1.

B2: SEQ ID NO: 64 (murine DR-IL-18 variant mE8) (ligand)
chain: NFGRLHCTTAVIRNINDQVLFVDKRQPVFEDMTDIDQSASEPQTRLIIYVYTDGRRRGKAVTLSVKDSKMSTLSCKNKIISFEEMDPPENIDDIQSDLIFFQKKVPGHDKMEFESSLYEGHFLACQKEDDAFKLILKKKDENGDKSVMFTLTNLHQS
notes: Engineered variant
For the molecule B2, the Kd came out at 1.69 nM in assay [4] and 42 nM in assay [8]. The “KD ratio IL-18BP/IL-18Rα” value is over 238 in [14] and over 17800 in [15]. For the same molecule, the “Dissociation Constant Ratio normalized to WT IL-18” value was over 9.68e+06 in assay [16] and over 1260 in assay [17].

B3: SEQ ID NO: 60 (murine DR-IL-18 variant mCS1) (ligand)
chain: NFGRLHCTTAVIRNINDQVLFVDKRQPVFEDMTDIDQSASEPQTRLIIYGYADSRVRGKAVTLSVKDSKMSTLSCKNKIISFEEMDPPENIDDIQSDLIFFQKRVPGHNKMEFESSLYEGHFLACQKEDDAFKLILKKKDENGDKSVMFTLTNLHQS
notes: Engineered variant
In the case of B3, the Kd in assay [4] was 0.54 nM; in assay [18], 3800 nM; in [8] it was 10.7 nM; in [21], over 1000 nM. Besides, the results for the “KD ratio IL-18BP/IL-18Rα” value in assay [14] and in [19] were over 935 and 7040, respectively. For the same molecule, the results for the “Dissociation Constant Ratio normalized to WT IL-18” value in assay [20] and in [17] were 3.84e+06 and over 4960, respectively.

B4: SEQ ID NO: 67 (murine DR-IL-18 variant mB1) (ligand)
chain: HFGRLHCTTAVIRNINDQVLFVDKRQPVFEDMTDIDQSASEPQTRLIIYGYADSDARAKAVTLSVKDSKMSTLSCKNKIISFEEMDPPENIDDIQSDLIFFQKSVPGHNKMEFESSLYEGHFLACQKEDDAFKLILKKKDENGDKSVMFTVTNLHQS
notes: Engineered variant
As for B4, the Kd is 0.7 nM in assay [4], 17.9 nM in assay [8], 14700 nM in assay [22] and over 1000 nM in [21]. In addition, the “KD ratio IL-18BP/IL-18Rα” value in assay [14] is over 559; in assay [19], 21000. The “Dissociation Constant Ratio normalized to WT IL-18” value was 1.15e+07 in [20] and over 2960 in assay [17].
